Laboratory results reported in paper doi:10.1101/2024.09.03.610921.

Molecular target: RAGE^23-341-His-FLAG (extracellular part of RAGE) (human (cDNA from HEK293T cells)) (UniProt Q15109)
Assay: pull-down

Sequence of RAGE^23-341-His-FLAG (extracellular part of RAGE) (human (cDNA from HEK293T cells)) (Q15109 23-341): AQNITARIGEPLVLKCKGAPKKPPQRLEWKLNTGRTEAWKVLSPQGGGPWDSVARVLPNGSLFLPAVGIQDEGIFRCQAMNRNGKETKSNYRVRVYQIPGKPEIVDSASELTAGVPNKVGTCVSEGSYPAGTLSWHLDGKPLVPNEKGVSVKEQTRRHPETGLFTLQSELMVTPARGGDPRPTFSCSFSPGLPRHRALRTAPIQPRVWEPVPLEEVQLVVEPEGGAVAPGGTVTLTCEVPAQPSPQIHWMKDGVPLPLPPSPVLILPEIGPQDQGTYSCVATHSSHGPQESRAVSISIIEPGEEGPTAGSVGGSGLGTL

core histone complex purified from bovines
fold of histone complex precipitated, against RAGE^124-341: 2.4 fold
